For orientation: EC50 means the concentration giving half of the maximal effect.

Test [1] has as its target T1, SUDV GP on pseudotyped lentiviral vector (Sudan virus (SUDV), UniProt Q7T9D9 33-676).
T1 sequence: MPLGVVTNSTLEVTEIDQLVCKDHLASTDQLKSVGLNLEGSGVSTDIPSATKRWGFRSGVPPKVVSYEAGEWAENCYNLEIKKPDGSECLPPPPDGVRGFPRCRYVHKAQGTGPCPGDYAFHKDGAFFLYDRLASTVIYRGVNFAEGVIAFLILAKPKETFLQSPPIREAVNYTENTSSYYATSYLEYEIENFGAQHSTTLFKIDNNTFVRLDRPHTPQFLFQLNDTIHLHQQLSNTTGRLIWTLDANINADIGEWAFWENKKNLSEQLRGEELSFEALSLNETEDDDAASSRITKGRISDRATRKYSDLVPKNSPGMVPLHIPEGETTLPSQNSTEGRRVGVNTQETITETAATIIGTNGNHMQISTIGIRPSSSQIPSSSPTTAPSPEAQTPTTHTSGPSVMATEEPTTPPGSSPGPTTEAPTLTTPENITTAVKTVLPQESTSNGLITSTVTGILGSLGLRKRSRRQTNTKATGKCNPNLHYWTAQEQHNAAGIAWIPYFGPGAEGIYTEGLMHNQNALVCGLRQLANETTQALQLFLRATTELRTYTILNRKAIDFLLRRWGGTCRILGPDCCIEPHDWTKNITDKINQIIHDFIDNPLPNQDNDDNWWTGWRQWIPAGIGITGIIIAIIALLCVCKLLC
As to the kind of experiment: cell-based or functional assay.

The target in test [2] is T2, full-length Sudan GP (GPFL) (Sudan virus (SUDV), UniProt Q7T9D9 33-650).
T2 construct: also called Sudan GPFL; GP(S)FL
T2 sequence: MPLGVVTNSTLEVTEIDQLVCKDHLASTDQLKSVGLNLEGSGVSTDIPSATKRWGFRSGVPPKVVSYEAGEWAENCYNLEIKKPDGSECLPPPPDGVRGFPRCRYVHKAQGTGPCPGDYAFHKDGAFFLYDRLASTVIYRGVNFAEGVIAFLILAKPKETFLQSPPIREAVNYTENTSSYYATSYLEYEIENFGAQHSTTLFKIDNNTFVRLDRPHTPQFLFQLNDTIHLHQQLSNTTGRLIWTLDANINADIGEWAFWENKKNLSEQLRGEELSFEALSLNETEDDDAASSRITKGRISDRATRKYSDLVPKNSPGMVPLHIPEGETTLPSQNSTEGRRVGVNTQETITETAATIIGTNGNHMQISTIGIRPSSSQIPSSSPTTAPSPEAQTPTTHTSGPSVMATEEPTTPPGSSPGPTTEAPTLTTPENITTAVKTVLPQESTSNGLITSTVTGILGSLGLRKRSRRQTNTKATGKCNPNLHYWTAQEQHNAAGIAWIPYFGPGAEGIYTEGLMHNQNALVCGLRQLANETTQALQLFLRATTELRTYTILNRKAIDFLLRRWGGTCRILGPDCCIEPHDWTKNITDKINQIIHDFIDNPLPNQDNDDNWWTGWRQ
As to the kind of experiment: ELISA on coated GP.

B1: antibody 545S (antibody, V domains shown)
VH: QVQLQESGPGLVKPSQTLSLTCTVSGGSISRAGSYWSWIRQHPGKGLEWIGYISYSGSTYYNPSLESRVTMSLDTSKSQFSLKLSSVTAADTAVYYCAREDRSGFYGLDVWGQGTTVTVSS
VL: QSVLTQPSSLSASPGATASLTCTLRSGINVDTYRIYWYQQKPGSPPQYLLRYKSDSDKHQGSGVPSRFSGSKDASANAGILLISGLQSADEADYYCMIWHSGAWVFGGGTKLTVQG
notes: also called 545S mAb
Take B1: the “IC50, microneutralization of GP-pseudotyped lentiviral vector on HEK293 cells” value in test [1] turned out to be 0.624 µg/mL. Moreover, in test [2], the EC50 amounted to 0.0338 µg/mL.

B2: antibody 291S (antibody, V domains shown)
VH: QVQLQESGPGLVKPSQTLSLTCTVSGGSFSSGFYWSWIRQRPGKGLEWVGYTYYSGSTYYNPSLQSRVTISVDTSKNQFSLNLSSVTAADTAVYHCARADYGGLFDYWGQGILVTVSS
VL: QSVLTQPSSLSASPGASASLTCTLRSGINVGTYRIFWYQQKPGSPPQFLLRYNSDSDKQQGSGVPSRFSGSKDASANAGILLISGLQSEDEADYYCMIWHTSAWVFGGGTKLTVL
Take B2: the “IC50, microneutralization of GP-pseudotyped lentiviral vector on HEK293 cells” value in test [1] was found to be 2.89 µg/mL. The molecule further showed an EC50 in test [2] of 0.0565 µg/mL.

The values above are taken from patent US20260209316A1 (US Dept. of Health and Human Services, published 2026).
